Like-named read-outs stand apart in the source and are kept apart here.
Legend:
[1] = tested on: KK4A peptide (KKGSVVIVGRIVLSGK), central region of the NS4A cofactor from genotype 1a with lysine residues added for improved solubility
[2] = tested on: internally quenched fluorogenic peptide (FRET substrate), Ac-DED(EDANS)EEαAbuψ[COO]ASK(DABCYL)-NH2
[3] = target: T1, internally quenched fluorogenic peptide (FRET substrate), Ac-DED(EDANS)EEαAbuψ[COO]ASK(DABCYL)-NH2
T1 chain: DEDEEXASK

[4] = target: T2, KK4A peptide (KKGSVVIVGRIVLSGK), central region of the NS4A cofactor from genotype 1a with lysine residues added for improved solubility
T2 chain: KKGSVVIVGRIVLSGK

Molecule	kinetic parameters for the FRET substrate [1]	Kcat [2] [s⁻¹]	Kcat/Km [2] [M⁻¹ s⁻¹]	Km [2] [µM]	Kcat [3] [s⁻¹]	Kcat/Km [3] [M⁻¹ s⁻¹]	Km [3] [µM]	kinetic parameters for the FRET substrate [4]	kcat [3] [s⁻¹]	kcat/Km [3] [M⁻¹ s⁻¹]
wild type HCV NS3 serine protease domain, genotype 1a	Although the NS4A peptide co-factor was from HCV genotype 1a, no discernable difference in the kinetic parameters was observed	1.2	897000	1.3						
D168V mutant HCV NS3 serine protease domain, genotype 1b (protein) APITAYSQQTRGLLGCIITSLTGRDRNQVEGEVQVVSTATQSFLATCVNGVCWTVYHGAGSKTLAGPKGPITQMYTNVDQDLVGWQAPPGARSLTPCTCGSSDLYLVTRHADVIPVRRRGDSRGSLLSPRPVSYLKGSSGGPLLCPSGHAVGIFRAAVCTRGVAKAVVFVPVESMETTMRSHHHHHH					0.6	498000	1.2			
D168A mutant HCV NS3 serine protease domain, genotype 1b (protein) APITAYSQQTRGLLGCIITSLTGRDRNQVEGEVQVVSTATQSFLATCVNGVCWTVYHGAGSKTLAGPKGPITQMYTNVDQDLVGWQAPPGARSLTPCTCGSSDLYLVTRHADVIPVRRRGDSRGSLLSPRPVSYLKGSSGGPLLCPSGHAVGIFRAAVCTRGVAKAVAFVPVESMETTMRSHHHHHH					0.3	150000	2			
wild type HCV NS3 serine protease domain, genotype 1b (Con1), residues Ala1-Ser181 with a C-terminal hexa-histidine tag (protein) APITAYSQQTRGLLGCIITSLTGRDRNQVEGEVQVVSTATQSFLATCVNGVCWTVYHGAGSKTLAGPKGPITQMYTNVDQDLVGWQAPPGARSLTPCTCGSSDLYLVTRHADVIPVRRRGDSRGSLLSPRPVSYLKGSSGGPLLCPSGHAVGIFRAAVCTRGVAKAVDFVPVESMETTMRSHHHHHH					1	947000	1.1	Although the NS4A peptide co-factor was from HCV genotype 1a, no discernable difference in the kinetic parameters was observed	1	947000
A156T mutant HCV NS3 serine protease domain, Con1 strain (protein) APITAYSQQTRGLLGCIITSLTGRDRNQVEGEVQVVSTATQSFLATCVNGVCWTVYHGAGSKTLAGPKGPITQMYTNVDQDLVGWQAPPGARSLTPCTCGSSDLYLVTRHADVIPVRRRGDSRGSLLSPRPVSYLKGSSGGPLLCPSGHAVGIFRTAVCTRGVAKAVDFVPVESMETTMRSHHHHHH							1.3		0.2	136000
A156V mutant HCV NS3 serine protease domain, Con1 strain (protein) APITAYSQQTRGLLGCIITSLTGRDRNQVEGEVQVVSTATQSFLATCVNGVCWTVYHGAGSKTLAGPKGPITQMYTNVDQDLVGWQAPPGARSLTPCTCGSSDLYLVTRHADVIPVRRRGDSRGSLLSPRPVSYLKGSSGGPLLCPSGHAVGIFRVAVCTRGVAKAVDFVPVESMETTMRSHHHHHH							2.6		0.6	234000
A156S mutant HCV NS3 serine protease domain, genotype 1b (protein) APITAYSQQTRGLLGCIITSLTGRDRNQVEGEVQVVSTATQSFLATCVNGVCWTVYHGAGSKTLAGPKGPITQMYTNVDQDLVGWQAPPGARSLTPCTCGSSDLYLVTRHADVIPVRRRGDSRGSLLSPRPVSYLKGSSGGPLLCPSGHAVGIFRSAVCTRGVAKAVDFVPVESMETTMRSHHHHHH					0.6	664000	0.9			
